Experimental data: patent publication US20240279277A1, “PREPARING METHOD OF HIGHLY FUNCTIONAL PEPTIDE DERIVED FROM KERATINOCYTE PROTEIN” (ANPEP INC., priority 2021, published 2024)

biological target: T1, elastase (type I: derived from porcine pancreas) (Sus scrofa, UniProt P00772); experiment: Elastase inhibition test (p-nitroanilide release, absorbance 410 nm); type: biochemical; conditions: peptides and controls 100 μg/mL; N-succinyl-(L-Ala) 3-p-nitroanilide substrate, 37 °C, 30 minutes
T1 construct: type I: derived from porcine pancreas; purchased Sigma Aldrich, USA; host or cells: porcine pancreas (tissue-derived)
Protocol: In order to confirm the anti-wrinkle effect of tetrapeptides, a test of inhibiting elastase was performed. The amount of p-nitroanilide produced was measured using N-succinyl-(L-Aal) 3-p-nitroanilide as a substrate at 37 °C for 30 minutes. After adding each of the peptides to be tested and negative and positive controls in an amount of 100 μg/mL into test tube, respectively, a pancreatic solution (type I: derived from porcine pancreas, 0.6 unit/mL, Sigma Aldrich, USA) in an amount of […] was added thereto. Thereafter, a substrate, in which N-succinyl-(L-Ala) 3-p-nitroanilide (1 mg/mL) was dissolved in 50 mM Tris-HCl buffer (pH 8.6), was added in an amount of […] thereto and allowed to react for 30 minutes and the absorbance was measured at 410 nm using a microplate reader. The elastase inhibitory activity was expressed as a decrease rate in absorbance of the groups with and without the addition of the sample solution as shown in Equation 1 below.
After treating the 42 kinds of synthesized peptides, their effects on inhibition of elastase were measured.

T1 sequence (P00772 27-266): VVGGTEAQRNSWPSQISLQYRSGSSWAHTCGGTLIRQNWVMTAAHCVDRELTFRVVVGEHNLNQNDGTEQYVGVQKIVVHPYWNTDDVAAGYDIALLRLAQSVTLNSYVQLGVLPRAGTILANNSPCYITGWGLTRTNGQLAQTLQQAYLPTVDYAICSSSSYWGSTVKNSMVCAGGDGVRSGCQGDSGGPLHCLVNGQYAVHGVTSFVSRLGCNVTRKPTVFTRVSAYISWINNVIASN

| Compound | Elastase Inhibition Rate(%) |
| --- | --- |
| C[C@H]1[C@H](C)CC[C@]2(C(=O)O)CC[C@]3(C)C(=CC[C@@H]4[C@@]5(C)CCC(=O)C(C)(C)[C@@H]5CC[C@]43C)[C@H]12 [Ursonic acid, reference compound] | 28.8 |
| CAPQ (Tetra Peptide) [Sample 14, tetrapeptide] | 77.2 |
| CFSS (Tetra Peptide) [Sample 21, tetrapeptide] | 47.4 |
| DCVK (Tetra Peptide) [Sample 5, tetrapeptide] | 118.4 |
| EGQL (Tetra Peptide) [Sample 30, tetrapeptide] | 69.7 |
| EHQE (Tetra Peptide) [Sample 29, tetrapeptide] | 66.3 |
| ELPE (Tetra Peptide) [Sample 24, tetrapeptide] | 90.5 |
| EQQE [25] (Tetra Peptide) [Sample 25, tetrapeptide] | 53.6 |
| EQQE [37] (Tetra Peptide) [Sample 37, tetrapeptide] | 64.2 |
| EVQW (Tetra Peptide) [Sample 42, tetrapeptide] | 49.5 |
| FSSG (Tetra Peptide) [Sample 22, tetrapeptide] | 69.1 |
| GCFS (Tetra Peptide) [Sample 20, tetrapeptide] | 55.2 |
| GGSG [Sample 18] | 103.5 |
| GQDP (Tetra Peptide) [Sample 34, tetrapeptide] | 34.5 |
| GQLE (Tetra Peptide) [Sample 23, tetrapeptide] | 73.2 |
| GQLK (Tetra Peptide) [Sample 27, tetrapeptide] | 56.0 |
| GQVS (Tetra Peptide) [Sample 10, tetrapeptide] | 33.9 |
| GSGY (Tetra Peptide) [Sample 9, tetrapeptide] | 56.3 |
| GSSG (Tetra Peptide) [Sample 19, tetrapeptide] | 58.3 |
| GYVS (Tetra Peptide) [Sample 11, tetrapeptide] | 78.5 |
| KHLE (Tetra Peptide) [Sample 28, tetrapeptide] | 79.3 |
| KTSG (Tetra Peptide) [Sample 7, tetrapeptide] | 44.5 |

| Compound | Elastase Inhibition Rate(%) |
| --- | --- |
| LELP (Tetra Peptide) [Sample 26, tetrapeptide] | 78.2 |
| LEVP (Tetra Peptide) [Sample 31, tetrapeptide] | 70.6 |
| MSYQ (Tetra Peptide) [Sample 1, tetrapeptide] | 79.4 |
| PEEQ (Tetra Peptide) [Sample 32, tetrapeptide] | 64.0 |
| PPVD (Tetra Peptide) [Sample 4, tetrapeptide] | 72.5 |
| PTPQ (Tetra Peptide) [Sample 3, tetrapeptide] | 69.3 |
| QKKQ (Tetra Peptide) [Sample 2, tetrapeptide] | 88.7 |
| QLKY (Tetra Peptide) [Sample 35, tetrapeptide] | 60.5 |
| QMGQ (Tetra Peptide) [Sample 33, tetrapeptide] | 55.6 |
| QPSY (Tetra Peptide) [Sample 15, tetrapeptide] | 63.5 |
| QQKQ (Tetra Peptide) [Sample 41, tetrapeptide] | 72.3 |
| SGGS (Tetra Peptide) [Sample 8, tetrapeptide] | 49.6 |
| SQQV (Tetra Peptide) [Sample 12, tetrapeptide] | 49.3 |
| SSGG (Tetra Peptide) [Sample 17, tetrapeptide] | 77.0 |
| TKGE (Tetra Peptide) [Sample 38, tetrapeptide] | 59.3 |
| TQTS (Tetra Peptide) [Sample 13, tetrapeptide] | 59.0 |
| VEHQ (Tetra Peptide) [Sample 40, tetrapeptide] | 55.7 |
| VKTS (Tetra Peptide) [Sample 6, tetrapeptide] | 66.3 |
| VLLP (Tetra Peptide) [Sample 39, tetrapeptide] | 60.7 |
| YGGG (Tetra Peptide) [Sample 16, tetrapeptide] | 67.1 |
| YLEQ (Tetra Peptide) [Sample 36, tetrapeptide] | 72.3 |
